Measured values published in publication PMC6078952.

Experiments:
[1] = target: recombinant human propeptide of lysyl oxidase (LOX-PP) (human) (UniProt P28300); test: SPR; Biacore T100 or T200, 25 °C, HBS pH 7.4 with 0.05% P20; LOX-PP covalently immobilised on a CM5 chip via amino groups, plasminogen as analyte; single-cycle kinetics, 2-state model, n = 2
[2] = target: Tropoelastin (UniProt P15502); test: SPR; Biacore T100 or T200, 25 °C, HBS pH 7.4 with 0.05% P20; tropoelastin covalently immobilised on a CM5 chip via amino groups, LOX-PP as analyte; single-cycle kinetics, 2-state model
Sequence of Tropoelastin (P15502 27-786): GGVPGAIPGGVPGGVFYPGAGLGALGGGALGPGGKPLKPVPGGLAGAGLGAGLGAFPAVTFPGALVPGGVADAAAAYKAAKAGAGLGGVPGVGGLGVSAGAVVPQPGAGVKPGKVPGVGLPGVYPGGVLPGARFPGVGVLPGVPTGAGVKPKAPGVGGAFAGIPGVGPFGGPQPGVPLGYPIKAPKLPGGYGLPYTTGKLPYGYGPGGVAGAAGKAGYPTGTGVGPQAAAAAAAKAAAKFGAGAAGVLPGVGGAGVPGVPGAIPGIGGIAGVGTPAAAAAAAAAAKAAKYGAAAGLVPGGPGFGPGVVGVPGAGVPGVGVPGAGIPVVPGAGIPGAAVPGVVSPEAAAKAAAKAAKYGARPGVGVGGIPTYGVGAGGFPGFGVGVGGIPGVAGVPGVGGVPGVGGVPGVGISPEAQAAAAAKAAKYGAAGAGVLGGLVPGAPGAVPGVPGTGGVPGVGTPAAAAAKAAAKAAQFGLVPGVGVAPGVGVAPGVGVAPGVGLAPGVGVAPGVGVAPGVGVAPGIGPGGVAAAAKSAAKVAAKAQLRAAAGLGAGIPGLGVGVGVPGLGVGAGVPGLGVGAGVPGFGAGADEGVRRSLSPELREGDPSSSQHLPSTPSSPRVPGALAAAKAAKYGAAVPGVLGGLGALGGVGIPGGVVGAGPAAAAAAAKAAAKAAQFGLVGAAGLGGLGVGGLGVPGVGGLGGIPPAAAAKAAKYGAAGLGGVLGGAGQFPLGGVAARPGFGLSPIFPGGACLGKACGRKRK

Sequence of recombinant human propeptide of lysyl oxidase (LOX-PP) (human) (P28300 22-168 P24L): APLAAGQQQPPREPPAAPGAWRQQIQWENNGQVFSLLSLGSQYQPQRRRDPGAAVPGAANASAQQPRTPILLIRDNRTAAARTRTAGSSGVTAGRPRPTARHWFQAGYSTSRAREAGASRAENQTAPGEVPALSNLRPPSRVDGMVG

| Kd [1] [nM] | ka of the first step (2-state model) [1] [M⁻¹ s⁻¹] | ka of the second step (2-state model) [1] [s⁻¹] | kd of the first step (2-state model) [1] [s⁻¹] | kd of the second step (2-state model) [1] [s⁻¹] | Kd [2] [nM] | ka of the first step (2-state model) [2] [M⁻¹ s⁻¹] | ka of the second step (2-state model) [2] [s⁻¹] | kd of the first step (2-state model) [2] [s⁻¹] | kd of the second step (2-state model) [2] [s⁻¹] | Substance |
| --- | --- | --- | --- | --- | --- | --- | --- | --- | --- | --- |
| 15.8 | 41700 | 0.00214 | 0.00515 | 0.000306 |  |  |  |  |  | Plasminogen (natural protein) |
|  |  |  |  |  | 1.39 | 331 | 0.003 | 0.0043 | 3.1e-07 | recombinant human propeptide of lysyl oxidase (LOX-PP) (from UniProt P28300 22-168) (domain or fragment) |
